The nature of the data set: soluble on expression in E. coli; label from the status in PepcDB or PDB records.
Turning to “MGSDKIHHHHHHMWLKAKKDAEAGAVSFSNQNGKFAEVSSVNTEEFSFRIYQVFGGGHVELSYDTVTTAVSVIYWFTASDVLETGITVVHTKPDNAAPELPGSYHFRPPFGWMNDPNGFGRFEGRPHLFYQHYSHGLRWNTMHWGHAVSSDYLRWRHLPIFLFPSEDLTTRPDKRGGAYSGSTIPLVEGSGIRVFFTEQVQDRIPEQQIQLTATSSDLIMAGQADVILAHRPDGQGLTPDFRDPYVFRGPDGLWKMLLGSQSDGGGVILLYETLDPTAASGWTYVGKLWVETRYKTTAIECPCLLPLDGPANARSTRWVLIYGLMHSEDPETGRKNLTMADVGWFDGKVFTKEFGQELDFGTDNYAFQAFLDGDSIIGIGWLANWADANPEIDFPTSMTLPRRIHYANGELLTPPIGAAESLRSHILDRTRLAAGERVTFINGAVEILIELASSDAAFELALDHPTVTLGLVSDETGLWIRHEDGRDGASPHYIAKGARASRIRIFLDYGSIEVFANRGRYVGTKRIEGFEPVRSALLRADPGAVVHATSWALKP”, the “soluble on expression in E. coli” value is “not soluble”.
“MGSDKIHHHHHHMWRNAQVNWDDYRCFLTLAKTGSFSRAARLLHVDHTTVGRRVAALEVDLGIKLVERLAREVRLTAEGHDLATLGLPVEEAMASVERAAAGGGAALAGPVHISAPPGLASLLLAPKLVSLHRQYPEIKITMSSDKDFANLNRREADIALRLSRPLSNGLVARKLRDIPFFFFASHTYDIAEDDWEFITYLQADDILPQQSWLMQHIGSRTIALRCSDAASQVQAAASGLGVALLPDYLGYNDTRLRKCPSRLTPPRRELWMVVHDDIRHAPRVRVVLDFLIGILTATQDLELPHASEA”: the “soluble on expression in E. coli” value was “not soluble”.
The same measure for “MGSDKIHHHHHHMWVRVPPPAPFSIFLSPGDDIVKRRKSTRTSSFGVKGRESHDSSPFYSRAIYSNFSLPKPSEEDLIENPLPENLLDKVIEGDAREVLKKIPDCSIHLMVTSPPYNVGKEYDEDMTLDEYLEFIEEIMKEVYRVLVWGGRACFNVANLGRKPYIPLHAYLIHLFEKIGFLIRGEIIWDKGEAVSGSSTAWGSWMSPVNPVLRDQHEYIIVMSKGDLKRRKPSDREAKSTITREEFLEFTRSVWKFPPESAKRVGHPAPFPEELPYRCIQLYTFKGDVVLDPFAGVGTTCVAAVKTGRHFVGIEINPEYVKKAEERVKDILSKPTLFEDHC”: “not soluble”.
For “MGSDKIHHHHHHMYEDYYRFSAKPFQLNPDPRFFYGSKGHKRAMAYLDYGLSLGEGFIVITGEVGAGKTTLVRNLFRQLEAHNLVAAQLVSTQLDAEDTLRSVAASFGLEHEGLTKSALLKNLESFLAAAARQGKRALLVVDEAQNLTPRAVEELRMLSNFQNDERSLIQTFLLGQPEFRGILQSPDMQQLRQRVVASYHLGPLDADETRGYIEHRLRTVGWQGMPGFDDDAFAALHRFSGGIPRRLNTTCDRLLLFGFLEEKRHFGEAEVDEVIADLRSEVAHQDFDRGAKPDARAADAFYAEDGGRLAQRIEQLERSVNRILPIVRKILYTVSEREAANDDTPQGPHDPAR” the value was “not soluble”.
For “MGSDKIHHHHHHMYETFMKRAIELAKKGLGRVNPNPPVGAVVVKDGRIIAEGFHPYFGGPHAERMAIESARKKGEDLRGATLIVTLEPCDHHGKTPPCTDLIIESGIKTVVIGTRDPNPVSGNGVEKFRNHGIEVIEGVLEEEVKKLCEFFITYVTKKRPFVALKYASTLDGKIADHRGDSKWITDKLRFKVHEMRNIYSAVLVGAGTVLKDNPQLTCRLKEGRNPVRVILDRKGVLSGKVFRVFEENARVIVFTESEEAEYPPHVEKALSDCSVESILRNLYERDIDSVLVEGGSKVFSEFLDHADVVFGFYSTKIFGKGLDVFSGYLSDVSVPPKFKVVNVEFSDSEFLVEMRPCSRE” the value was “soluble”; for “MGSDKIHHHHHHMYKLNLDIQAFLANDWQQAPKVFKGAFPDFEDPIAADELAGLACEEEVSSRVVVTKGNDWEVISGPFEDYDRFGETHWQLLVQAVNHWYPESQPLVEAFRFLPDWRFDDLMVSFATPQGGVGPHIDNYDVFIIQGEGQRRWTVGPKGNYQRRGGVTTSPLIEDFEPIIDVVLEKGDVLYIPPGFPHQGETLTLALSYSMGYRAPSQQELAGQIADQLMDEDKGHKRFIAVDGAASHGTVSLAEQQGIMQLIRDLCNDTDNVVKVLGKLLSQNRFDLDIQEDESIDADALVEALNEGAVLMRIGGLKVLKMEGDSQARLFVAGESVIIEGASEEELIEVSNSVNVNAELAQLPHWQGFFVQMLQKGYFYLGED”, “not soluble”; for “MGSDKIHHHHHHMYKWHNVFQPIFQIDQNMNHKVDHYEMLLRDENDQFPNHDFFRIISTEEDNQKWIQIEEKSLKNLFSLHPNIHVNLNVEPIQFAYPSVWEFLRRIYDKYGQKVIIEITERQLQAGNIGNRQFDCAFQRINDIGFKIALDDVDSGSNSFSFVNHHVNQISVIKLSLLIFDNVSSGTTISFIDSWAAFAKEKHLDLVIEAVRSKEIAKRFAGNKHIFQQGYYWEKALKLEDIY”, “not soluble”.
In the case of “MGSDKIHHHHHHMYLAYYGFAEKPFQLKPDPNFFFPSRGHKRAAAYLEYGLSQEDGFIIITGDVGAGKTTLMRYLFQKLRQERVAAAQLVSTRLDPDDALRMVAAAFGLSYEGLSKAALLLELERFMRKCERESTRVLLVVDEAQNLLPQTLEELRMLSNFQSDNRPLLQTFLLGQPEFRRTLLGSQMQQLRQRVIATYHLGPLDQAETRAYIEHRLQKAGWNGSPVLQDEIFEVIHNFSAGIPRKINLFCDRLLIMGCLEELQTLGKAEANEVMLDIQKEFDLAVSPE”, the “soluble on expression in E. coli” value was “not soluble”.
For “MGSDKIHHHHHHMYNPVGVAAIGLGRWAYVMADAYTKSEKLKLVTCYSRTEDKREKFGKRYNCAGDATMEALLAREDVEMVIITVPNDKHAEVIEQCARSGKHIYVEKPISVSLDHAQRIDQVIKETGVKFLCGHSSRRLGALRKMKEMIDTKEIGEVSSIEAVFSNERGLELKKGNWRGEPATAPGGPLTQLGVHQIDNLQFLLGPVARVFNFGKPMYTEVENITVNQTLLEFEDGKQAYLGTNWACPGVFSINVYGTKANLFYQLDFSWWSNSDVTDEHSTLIKREFASMSDDPDNRILRDVKVDFESVDHLRVEVEEVADVIRNGGETEIGAEASLRNLAVVLAAVKSVHEKRPVEIAEIIG” the value was “not soluble”; for “MGSDKIHHHHHHMYQIQIRIWFNFISKNKHHMLGTMSDSYDFFLSMSEITFALDPKYEFDKDIGCVLSLIKNTKELRFRINQYINKYKNKSPSLNRLNTFINTLEENENFYLLPAIENVSQTQLIKLQTSLSLVHLDELGKDAYIKSFNSNFSDFIDQYSMNGIDPKEVKGKKKIGEGFKANRVCRFCNNKNEKPTTFAKEAHAISESLGNKKIILNEECDLCNEYFDQNIERDIDTYLKLYSSFFRVKNKDNKVSKIKGKNFSFEYINTTIDGHDRHIDFVLAHTPTNSESCNSDSEPPKNVDLCFHQKIRKQNIYKSLVKFALSVIHDRKDLSEFNKAIEWIKSPTKFYEQLPKIAILKNYQFYCTEPALIVYISKNKKQGLPYAVGEFHYTFLTYIFIIPLFKSDEVEFSQQNNFDDFIKFFPQFKRMDEWSFEDFSDYEEKEFVLNMILSQRDEG”, “not soluble”.
With “MGSDKIHHHHHHMYRVFVFDLDGTLLNDNLEISEKDRRNIEKLSRKCYVVFASGRMLVSTLNVEKKYFKRTFPTIAYNGAIVYLPEEGVILNEKIPPEVAKDIIEYIKPLNVHWQAYIDDVLYSEKDNEEIKSYARHSNVDYRVEPNLSELVSKMGTTKLLLIDTPERLDELKEILSERFKDVVKVFKSFPTYLEIVPKNVDKGKALRFLRERMNWKKEEIVVFGDNENDLFMFEEAGLRVAMENAIEKVKEASDIVTLTNNDSGVSYVLERISTDCLDE”, the “soluble on expression in E. coli” value is given as “not soluble”.
For “MGSDKIHHHHHHMYYQLYELHHAALQPARTYADAIRLFYSNPLNPVSSTTWGRSIAAAAEMFERTTRRYGKPGFGITSTVVDGKEVRVQEKEVWSRPFCRLLHFERQLPARRKPDVKLLMVAPMSGHYATLLRGTVEAMLPHADVYITDWIDARMVPLSYGNFDLDDYIDYLIEMFHLLGPDASVMAVCQPSVPVLAAVALMEARGDPNLPSSMTLMGGPIDTRRNPTAVNRLAQEHGIEWFRDNVVMSVPWPNPGFMRPVYPGFLQLSGFMSMNLDRHIVAHEEFFMHLVKGDGDSAEKHREFYDEYLAVMDLTAEFYLQTVDTVFIRHALPKGEMTHRSERVDPASIRSVALLTVEGENDDISGIGQTKAAHDLCVNIPSGKRHHHLQPSVGHYGVFNGSRFRKEILPRIVRFVNENRGA” the value was “not soluble”.
Regarding “MGSDKIHHHHHHNEDNLKIKTIKGDSNELDHININFGYALNGYINSYYTINGSNKTKKTELIKLQKDSKNTNNLIDVSSGSDLIAHVGFEMNEESKDINFVIDEKKEDLEKGVFPSEGSDKEIEYEKLDMNNFTRTRYKVDKSTDDYYAKILASKRYKKYLYVSVLYATSDSSENNKEYSSTIDIIKINPENKKIKTIKSINLSNYFSEKYQNIENIGVSYASKYEDKMYILVNVLNTNIGDNSNSKFHLLEYNLEENKESIMELKTDSKMALAKAKLEANKLYMVMSNDYDNSSITELNLLTYNILDKSLDEDKYVLDNREKRGIRSIEIDSNKIVAYTSRLNSILSWDDKFMLYIINKNSKEIVYEGELQFNSSNSMLEFEIK”, the “soluble on expression in E. coli” value is given as “not soluble”.
The same measure for “MGSDKIHHHHHHPNDPIIYKKEGGAFLWLGDTAWELFHVLDKEEIVHYLDNRQEKGFTVIQAVILSELDGLDKPNAYGYLPLVDKDPTQITEGYFELVDFVIREAGKRGMYIGLLPTWANNVVEKDGNPALFNPDNAYTYGKILGTRYKNEAVIWILGGDRNVVTDKEFEIWQSMAKGIQEGNGGTQLMSYHPTGEISSHYWFHNESWLSFNILQSGHYRRMDPVYRFSGMYAQLNPIKPFVNAEPSYEDIPVLFWEYFDYAKFGKKKEDIIGDNGLIKDTTYFTDGIYDDYDIRMQAYWTYFSGAAGYTYGNNAIWQMYKPGGKYHVPCLTFWDGALDRPGAECMRYVKSLFTMYPLDRFRPDLSVLFGINYNDASYITPVLAKDKTFILVYLSQGQDVRIQMSKLRSLGKAYWFNPRNGARTLIGPVENKGIRTFNAPGEAGERGNDWILILEADDR”: “not soluble”; for “MGSDKIHHHHHHQEQVKVVDRTIRIGDAMEHPVPMKLSAFVDSITYVPLETTKSYVKDKMLISYVKPYWGVYPGSLFDKEGRFVANIGALGQGPGEESGFGYSIFYDRDRNIFYTQGDKIIQFDAKGKFTGKEIRIAYRDKGIEGKIASGLKNVYAMVKSGKDYLIVNYPDSIFWMDAELNVRHGDRIISDSLFLTPSGVGGGMPYTFSDYKDTTIFYNCFTDAIYTVTDTGLQKRWTLEFKGSKADNRCFLNDYKKLYLDEYVKIVSSSKGNVETMKEKAQNSELAQLIDNKKWVYHVSEGERYLFLWWLNLKAFSSAWRGYNESHIALYDKRTGEAVAIAGDGLIDDIDNGMTFFPRYGICNNAMVSSVWPFELKEYIQEKKAKGEAVSDRLIALADSLDDEQNPILVIAHLKK”: “not soluble”.
For “MGSDKIHHHHHHQMEERLGNTSQELQSLQVQNIKLAGSLQHVAEKLCRELYNKAGAHRCSPCTEQWKWHGDNCYQFYKDSKSWEDCKYFCLSENSTMLKINKQEDLEFAASQSYSEFFYSYWTGLLRPDSGKAWLWMDGTPFTSELFHIIIDVTSPRSRDCVAILNGMIFSKDCKELKRCVCERRAGMVKPE” the value was “not soluble”.
Consider “MGSDKIHHHHHHQRDLWNIFKLWGWTMLCCDFLAHHGTDCWTYHYSEKPMNWQRARRFCRDNYTDLVAIQNKAEIEYLEKTLPFSRSYYWIGIRKIGGIWTWVGTNKSLTEEAENWGDGEPNNKKNKEDCVEIYIKRNKDAGKWNDDACHKLKAALCYTASCQPWSCSGHGECVEIINNYTCNCDVGYYGPQCQFVIQCEPLEAPELGTMDCTHPLGNFSFSSQCAFSCSEGTNLTGIEETTCGPFGNWSSPEPTCQVIQCEPLSAPDLGIMNCSHPLASFSFTSACTFICSEGTELIGKKKTICESSGIWSNPSPICQKLDKSFSMIKEGDYN”, for which the “soluble on expression in E. coli” value is listed as “not soluble”.

For the origin of these results see the DeepSol protein solubility set.
